Source: paper PMC3521718, “Histone Deacetylase HDA6 Is Functionally Associated with AS1 in Repression of KNOX Genes in Arabidopsis” (PLoS Genetics, 2012)

Biological target: T1, glutathione S-transferase (GST)-HDA6 recombinant protein (Arabidopsis thaliana, UniProt Q9FML2 1-471)
T1 construct: Histone deacetylase HDA6 of Arabidopsis; Printed both as GST-HDA6 and as HDA6-GST; also called HDA6-GST; source: recombinant protein
T1 sequence (looked up): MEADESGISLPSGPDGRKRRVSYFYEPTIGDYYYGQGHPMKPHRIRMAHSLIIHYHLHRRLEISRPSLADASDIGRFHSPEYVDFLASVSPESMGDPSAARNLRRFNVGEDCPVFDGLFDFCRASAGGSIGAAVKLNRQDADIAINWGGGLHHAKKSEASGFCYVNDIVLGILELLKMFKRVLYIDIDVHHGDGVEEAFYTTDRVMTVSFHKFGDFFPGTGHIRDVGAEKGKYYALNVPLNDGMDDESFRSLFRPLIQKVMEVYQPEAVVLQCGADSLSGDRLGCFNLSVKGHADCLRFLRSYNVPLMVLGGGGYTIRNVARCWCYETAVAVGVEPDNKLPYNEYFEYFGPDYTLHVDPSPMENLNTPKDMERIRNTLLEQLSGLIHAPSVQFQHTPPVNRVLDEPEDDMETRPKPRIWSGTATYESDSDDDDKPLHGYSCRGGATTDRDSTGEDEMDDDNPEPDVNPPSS
Assay: pull-down; 2 µg MBP-AS1 on MBP resin, then 2 µg GST-HDA6 for 2 h at 4°C; 20 mM Tris-HCl pH 7.5, 200 mM NaCl, 1 mM EDTA; western blot with anti-GST
Conditions: both partners purified

binding result: binds
B1: MBP-AS1 recombinant protein (natural protein, Arabidopsis thaliana, UniProt O80931 1-367, looked up)
chain: MKERQRWSGEEDALLRAYVRQFGPREWHLVSERMNKPLNRDAKSCLERWKNYLKPGIKKGSLTEEEQRLVIRLQEKHGNKWKKIAAEVPGRTAKRLGKWWEVFKEKQQREEKESNKRVEPIDESKYDRILESFAEKLVKERSNVVPAAAAAATVVMANSNGGFLHSEQQVQPPNPVIPPWLATSNNGNNVVARPPSVTLTLSPSTVAAAAPQPPIPWLQQQQPERAENGPGGLVLGSMMPSCSGSSESVFLSELVECCRELEEGHRAWADHKKEAAWRLRRLELQLESEKTCRQREKMEEIEAKMKALREEQKNAMEKIEGEYREQLVGLRRDAEAKDQKLADQWTSRHIRLTKFLEQQMGCRLDRP
notes: The methods spell MBP out as 'Myelin basic protein'; source: purified recombinant protein
